According to paper PMC5437297, “PTEN regulates glioblastoma oncogenesis through chromatin-associated complexes of DAXX and histone H3.3” (Nature Communications, 2017):

Biological target: T1, human recombinant Flag-DAXX protein (human, UniProt Q9UER7 1-740)
T1 construct: DAXX (death-domain associated protein), human, recombinant; Commercial protein; no catalogue number is printed in the main text; source: bought: OriGene Technologies (recombinant protein)
Test: pull-down; 50 ng His-PTEN immobilised on 30 ul nickel beads, incubated with 200 ng Flag-DAXX for 2 h at 4 °C; bound proteins eluted and immunoblotted (the legend says IP anti-PTEN, IB anti-Flag)
Details: both partners purified

T1 sequence (Q9UER7 whole entry): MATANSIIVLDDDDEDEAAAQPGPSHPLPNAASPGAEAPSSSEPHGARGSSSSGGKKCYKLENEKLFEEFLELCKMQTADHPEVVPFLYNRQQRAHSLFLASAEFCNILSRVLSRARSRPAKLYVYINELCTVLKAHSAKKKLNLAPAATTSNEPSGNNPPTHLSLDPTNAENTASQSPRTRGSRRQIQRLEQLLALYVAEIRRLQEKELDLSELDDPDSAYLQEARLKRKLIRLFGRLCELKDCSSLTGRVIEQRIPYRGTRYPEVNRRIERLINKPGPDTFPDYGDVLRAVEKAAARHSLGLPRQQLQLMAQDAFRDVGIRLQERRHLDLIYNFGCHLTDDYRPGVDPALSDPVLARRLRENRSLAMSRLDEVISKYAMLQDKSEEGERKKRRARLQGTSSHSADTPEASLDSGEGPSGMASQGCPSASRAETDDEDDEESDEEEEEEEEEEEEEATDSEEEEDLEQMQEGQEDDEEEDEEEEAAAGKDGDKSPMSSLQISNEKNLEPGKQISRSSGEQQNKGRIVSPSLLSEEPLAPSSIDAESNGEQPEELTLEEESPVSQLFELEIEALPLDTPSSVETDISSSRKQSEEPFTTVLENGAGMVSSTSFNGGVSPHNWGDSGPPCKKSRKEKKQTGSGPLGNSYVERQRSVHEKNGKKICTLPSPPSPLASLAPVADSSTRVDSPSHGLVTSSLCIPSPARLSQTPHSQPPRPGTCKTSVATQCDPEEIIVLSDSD

binding result: binds
B1: human recombinant His-PTEN (natural protein)
chain: not shown
notes: PTEN (phosphatase and tensin homolog), human, recombinant; Commercial protein; no catalogue number is printed in the main text (reagents are in the Supplementary Methods); source: bought: ENZO Life Science (recombinant protein)
